Target: T1, p53 C-terminal domain (p53CTD, residues 293–393) (UniProt P04637 293-393)
T1 construct: p53 C-terminal domain, residues 293–393; 15N-labeled for NMR; also called p53(293–393); full length p53CTD; source: E. coli (C41 for the 15N-labeled protein), purified as described [23]
Assay: peptide or protein array; Celluspots peptide array, peptides immobilised; 20 µM p53CTD in 1% milk in TBS-T (50 mM Tris pH 7.5, 110 mM NaCl, 0.05% Tween 20), overnight at 4°C; detected with FL-393 anti-p53 antibody
Conditions: both partners purified

T1 sequence (P04637 293-393): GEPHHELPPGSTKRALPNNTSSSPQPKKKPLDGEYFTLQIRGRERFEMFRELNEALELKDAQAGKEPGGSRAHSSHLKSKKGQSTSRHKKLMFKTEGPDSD

B1: PKCα(271–285), peptide on the array (peptide)
peptide: ASGWYKLLNQEEGEY
notes: Protein Kinase C α isoform, residues 271–285; Immobilised on the array; source: bought: Intavis Celluspots peptide array
Question: Does B1 bind?
Answer: binds
